{"source": "patent US20230329245A1", "about": "“COMPOSITIONS AND METHODS OF USE THEREOF” (Curie Co. Inc., priority 2020, published 2023)", "molecules": {"B1": {"name": "Pro-Tgase SEQ ID NO:3: variant of Streptomyces mobaraensis Tgase zymogen form (pro-Tgase), SEQ ID NO:3 (protein)", "chain": "MDNGAGEETKSYAETYRLTADDVANINALNESAPAASSAGPSFRAPDPDDRVTPPAEPLDRMPDPYRPSYGRAETVVNNYIRKWQQVYSHRDGRKQQMTEEQREWLSYGCVGVTWVNSGQYPTNRLAFASFDEDRFKNELKNGRPRSGETRAEFEGRVAKESFDEEKGFQRAREVASVMNRALENAHDESAYLDNLKKELANGNDALRNEDARSPFYSALRNTPSFKERNGGNHDPSRMKAVIYSKHFWSGQDRSSSADKRKYGDPDAFRPAPGTGLVDMSRDRNIPRSPTSPGEGFVNFDYGWFGAQTEADADKTVWTHGNHYHAPNGSLGAMHVYESKFRNWSEGYSDFDRGAYVITFIPKSWNTAPDKVKQGWPLEHHHHHH"}}, "experiment": "Colorimetric hydroxamate Tgase activity assay", "type": "biochemical", "conditions": "zymogen purified on Ni-IMAC resin and desalted", "procedure": "The cells were lysed using a high-pressure homogenizer at pressures from 15000-20000 psi. The crude lysates were clarified through centrifugation at 15000×g for up to 60 minutes. The clarified lysate containing pro-Tgase SEQ ID NO:3 was evaluated by sodium dodecyl sulfate polyacrylamide gel electrophoresis (SDS-PAGE) and spectroscopy (A280 nm). The clarified lysate was further purified by affinity column on a Ni-IMAC resin and desalted.", "data": [{"molecule": "B1", "values": [{"measurement": "Tgase activity (colorimetric hydroxamate activity assay)", "value": "little to no activity"}]}]}
